Source: US20240100159A1, “USE OF IL-7R-ALPHA-GAMMA AGONIST PEPTIDES IN CELL MANUFACTURING” (MEDIKINE, INC., priority 2022, published 2024)

Target: T1, hu-IL-7Rα subunit (human, UniProt P16871 21-239, limits assumed)
T1 construct: also called human interleukin-7 receptor subunit α; CD127
T1 sequence (looked up): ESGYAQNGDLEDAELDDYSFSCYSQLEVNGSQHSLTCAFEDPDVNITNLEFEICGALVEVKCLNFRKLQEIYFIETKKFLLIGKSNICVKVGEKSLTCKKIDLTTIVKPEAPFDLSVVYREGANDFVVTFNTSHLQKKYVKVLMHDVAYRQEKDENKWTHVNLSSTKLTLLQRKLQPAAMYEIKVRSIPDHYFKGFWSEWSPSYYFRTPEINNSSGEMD
Experiment: phage ELISA competition assay

SLTVPWCTLDPGSMQCAWLQNR (also called IL-7Rα ligand) [SEQ ID NO 112]
IC50: < 10 µM
